Earlier results, collected in PMC5372734.
Where two headings read alike, the source gives them in different places.

Experiments:
[1] = target: Factor XIIa (Homo sapiens) (UniProt P00748)
[2] = target: Factor XIIa (Homo sapiens) (UniProt P00748); remark: listed apart in the source

UniProt P00748, sequence (P00748 whole entry, looked up): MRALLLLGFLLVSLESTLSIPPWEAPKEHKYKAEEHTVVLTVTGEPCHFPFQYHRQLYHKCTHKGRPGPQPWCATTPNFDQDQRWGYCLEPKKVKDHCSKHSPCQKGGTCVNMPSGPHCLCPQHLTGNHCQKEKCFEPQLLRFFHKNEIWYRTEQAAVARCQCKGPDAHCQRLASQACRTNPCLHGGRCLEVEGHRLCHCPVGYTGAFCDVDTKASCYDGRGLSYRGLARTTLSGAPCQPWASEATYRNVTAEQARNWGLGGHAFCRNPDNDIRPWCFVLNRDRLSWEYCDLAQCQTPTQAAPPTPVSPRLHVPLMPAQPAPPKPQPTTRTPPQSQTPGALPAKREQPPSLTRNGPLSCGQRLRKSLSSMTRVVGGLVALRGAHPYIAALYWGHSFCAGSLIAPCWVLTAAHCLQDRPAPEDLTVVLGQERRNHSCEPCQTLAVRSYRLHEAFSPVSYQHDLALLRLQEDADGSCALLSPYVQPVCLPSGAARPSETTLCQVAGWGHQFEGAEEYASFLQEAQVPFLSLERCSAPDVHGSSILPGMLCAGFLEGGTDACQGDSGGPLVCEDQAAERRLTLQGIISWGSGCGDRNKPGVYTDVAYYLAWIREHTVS

- Kd [1]: 1.6 nM
- Kd [2]: 0.009 nM
Substance: Histidine-rich glycoprotein (from UniProt P04196)
